According to article PMC6973309 (mAbs, 2020):

Molecular target: BI 655089 (llama)
Assay: flow cytometry on cells

B1: human CX3CR1 (receptor, UniProt P49238 1-355, looked up)
chain: MDQFPESVTENFEYDDLAEACYIGDIVVFGTVFLSIFYSVIFAIGLVGNLLVVFALTNSKKPKSVTDIYLLNLALSDLLFVATLPFWTHYLINEKGLHNAMCKFTTAFFFIGFFGSIFFITVISIDRYLAIVLAANSMNNRTVQHGVTISLGVWAAAILVAAPQFMFTKQKENECLGDYPEVLQEIWPVLRNVETNFLGFLLPLLIMSYCYFRIIQTLFSCKNHKKAKAIKLILLVVIVFFLFWTPYNVMIFLETLKLYDFFPSCDMRKDLRLALSVTETVAFSHCCLNPLIYAFAGEKFRRYLYHLYGKCLAVLCGRSVHVDFSSSESQRSRHGSVLSSNFTYHTSDGDALLLL
Question: Does B1 bind?
Answer: binds
